Laboratory results published in patent US20250011363A1, “OPTIMIZED SHORTENED PEPTIDE THAT BINDS TO ACETYLCHOLINE RECEPTOR, AND USE THEREOF” (SKINMED CO., LTD., priority 2021, published 2025).

Biological target: acetylcholine receptor (Homo sapiens, UniProt P02708)
Test: SPR binding affinity (RU) of optimized 5mer/6mer/7mer peptides, Examples 6-7
Conditions: 6mer-2 Top sequence; SPR; peptides tested at 10 μM
Procedure, shortened: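 Binding response (RU) to the human acetylcholine receptor was measured by SPR. Each 5mer or 6mer library peptide was applied at 10 μM, with sequences drawn from top and bottom amino-acid combinations.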

Sequence of acetylcholine receptor (P02708 21-457): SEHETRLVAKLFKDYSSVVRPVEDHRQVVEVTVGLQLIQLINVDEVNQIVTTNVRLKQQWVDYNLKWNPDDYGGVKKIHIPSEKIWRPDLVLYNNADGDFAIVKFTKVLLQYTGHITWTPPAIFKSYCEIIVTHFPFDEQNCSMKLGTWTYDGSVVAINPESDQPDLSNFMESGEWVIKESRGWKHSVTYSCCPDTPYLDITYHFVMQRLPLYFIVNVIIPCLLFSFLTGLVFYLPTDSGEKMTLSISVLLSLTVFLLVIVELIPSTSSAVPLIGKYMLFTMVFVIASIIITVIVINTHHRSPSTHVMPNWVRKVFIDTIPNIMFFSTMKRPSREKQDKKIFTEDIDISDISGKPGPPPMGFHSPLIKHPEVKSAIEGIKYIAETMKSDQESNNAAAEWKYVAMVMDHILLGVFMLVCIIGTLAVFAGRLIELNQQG

| Substance | Binding affinity [Ru] |
| --- | --- |
| 6mer-2-92 (KVVCKR) | 131 |
| 6mer-2-93 (RWQTRR) | 133 |
| 6mer-2-94 (RLYQRK) | 126 |
| 6mer-2-95 (RRIYRK) | 142 |
| 6mer-2-96 (KWRQRK) | 154 |
| 6mer-2-97 (RQFYRK) | 154 |
| 6mer-2-98 (RRQQRR) | 148 |
| 6mer-2-99 (RQRSRR) | 151 |
| 6mer-2-100 (RRRCRR) | 142 |
| 6mer-2-101 (RLICRK) | 154 |
| 6mer-2-102 (KVYQKK) | 139 |
| 6mer-2-103 (RVVTKK) | 136 |
| 6mer-2-104 (RGVCRK) | 145 |
| 6mer-2-105 (RGFTRR) | 151 |
| 6mer-2-106 (RWVQRK) | 123 |
| 6mer-2-107 (RGVYRK) | 144 |
| 6mer-2-108 (RVVYKK) | 153 |
| 6mer-2-109 (RRVYRK) | 144 |
| 6mer-2-110 (KSQLKK) | 153 |
| 6mer-2-111 (KLIRRK) | 123 |
| 6mer-2-112 (RLQQKR) | 142 |
| 6mer-2-113 (KRYSRK) | 145 |

| Substance | Binding affinity [Ru] |
| --- | --- |
| 6mer-2-114 (KLQYRK) | 121 |
| 6mer-2-115 (KWQYRK) | 144 |
| 6mer-2-116 (KLQRKK) | 126 |
| 6mer-2-117 (KRYTRK) | 148 |
| 6mer-2-118 (KWFSRR) | 135 |
| 6mer-2-119 (RSISKK) | 139 |
| 6mer-2-120 (RRQCRK) | 146 |
| 6mer-2-121 (KRVYRK) | 137 |
| 6mer-2-122 (RVITKK) | 125 |
| 6mer-2-123 (RQFTKR) | 146 |
| 6mer-2-124 (KWQLKR) | 126 |
| 6mer-2-125 (KVQLRR) | 142 |
| 6mer-2-126 (KWLYRR) | 148 |
| 6mer-2-127 (RLYLRK) | 136 |
| 6mer-2-128 (KSYYRR) | 147 |
| 6mer-2-129 (KSVLRK) | 139 |
| 6mer-2-130 (RGVCRR) | 122 |
| 6mer-2-131 (KQQTKR) | 148 |
| 6mer-2-132 (KLYCKK) | 139 |
| 6mer-2-133 (KRRLKK) | 145 |
| 6mer-2-134 (RLFQRK) | 148 |
| 6mer-2-135 (RWFYKK) | 124 |

| Substance | Binding affinity [Ru] |
| --- | --- |
| 6mer-2-137 (KVFCKK) | 135 |
| 6mer-2-138 (KQRRRK) | 153 |
| 6mer-2-139 (KLFRKK) | 149 |
| 6mer-2-140 (KGRLKK) | 142 |
| 6mer-2-141 (KWYQKK) | 154 |
| 6mer-2-142 (RWVLRR) | 121 |
| 6mer-2-143 (RRVCRR) | 128 |
| 6mer-2-144 (KSIRRK) | 133 |
| 6mer-2-145 (RQYYKK) | 128 |
| 6mer-2-146 (KQLLKR) | 135 |
| 6mer-2-147 (RQYTKR) | 133 |
| 6mer-2-148 (KGQYKK) | 145 |
| 6mer-2-149 (KGQQRK) | 127 |
| 6mer-2-150 (KRILKR) | 136 |
| 6mer-2-151 (KQLRKR) | 142 |
| 6mer-2-152 (RQFYKR) | 139 |
| 6mer-2-153 (RVYSRR) | 124 |
| 6mer-2-154 (KRVTKR) | 148 |
| 6mer-2-155 (KGVYKK) | 139 |
| 6mer-2-156 (KGLQRR) | 127 |
| 6mer-2-157 (RSYRKK) | 153 |
| 6mer-2-158 (RSFLRR) | 145 |

| Substance | Binding affinity [Ru] |
| --- | --- |
| 6mer-2-159 (RQYYRK) | 127 |
| 6mer-2-160 (RVRRKK) | 121 |
| 6mer-2-161 (KWRRKK) | 154 |
| 6mer-2-162 (KVISKR) | 136 |
| 6mer-2-163 (KWFYRR) | 149 |
| 6mer-2-164 (KRQRRK) | 135 |
| 6mer-2-165 (KWFTRR) | 139 |
| 6mer-2-166 (RWLRKR) | 125 |
| 6mer-2-167 (KLFQKR) | 145 |
| 6mer-2-168 (RVFLKR) | 135 |
| 6mer-2-169 (KRQSRR) | 123 |
| 6mer-2-170 (RQYQKK) | 128 |
| 6mer-2-171 (RQQTRR) | 139 |
| 6mer-2-172 (KVIRKK) | 128 |
| 6mer-2-173 (RQQCKK) | 127 |
| 6mer-2-174 (KLLRKR) | 142 |
| 6mer-2-175 (KVYLRK) | 137 |
| 6mer-2-176 (RWIYRR) | 144 |
| 6mer-2-177 (RSVTKK) | 136 |
| 6mer-2-178 (KWLLRR) | 133 |
| 6mer-2-179 (RRVYRR) | 121 |
| 6mer-2-180 (RLRLKR) | 142 |

| Substance | Binding affinity [Ru] |
| --- | --- |
| 6mer-2-181 (RWQQKK) | 139 |
| 6mer-2-182 (KLFYKK) | 139 |
| 6mer-2-183 (RLQLRR) | 154 |
| 6mer-2-184 (KWVSRR) | 136 |
| 6mer-2-185 (RGYQKR) | 137 |
| 6mer-2-186 (KQICRK) | 127 |
| 6mer-2-187 (KRRRRK) | 145 |
| 6mer-2-188 (RGYTKR) | 142 |
| 6mer-2-189 (RWQCKK) | 121 |
| 6mer-2-190 (KVYLKR) | 148 |
| 6mer-2-191 (RQLLKR) | 154 |
| 6mer-2-192 (RWFSKK) | 133 |
| 6mer-2-193 (KWISKR) | 127 |
| 6mer-2-194 (KLRLRK) | 154 |
| 6mer-2-195 (KSRQKR) | 154 |
| 6mer-2-196 (KSQRKK) | 121 |
| 6mer-2-197 (RGQYRR) | 126 |
| 6mer-2-198 (KWYYRK) | 139 |
| 6mer-2-199 (RGQYKR) | 137 |
| 6mer-2-200 (RGVQRK) | 121 |
| 6mer-2-201 (KLFLRR) | 148 |
| 6mer-2-202 (RLIYKK) | 122 |

Same assay, conditions: SPR, Resonance Units; peptides tested at 10 μM; 6mer-2 Top sequence (Table 12)

| Substance | Binding affinity [Ru] |
| --- | --- |
| 6mer-2-203 (KSRTKR) | 135 |
| 6mer-2-204 (RRVQKR) | 142 |
| 6mer-2-205 (KSFQRK) | 147 |
| 6mer-2-206 (KWQYKK) | 148 |
| 6mer-2-207 (KWVSKR) | 153 |
| 6mer-2-208 (RSQQRK) | 128 |
| 6mer-2-209 (RLYYRK) | 148 |
| 6mer-2-210 (RSQSRR) | 128 |
| 6mer-2-211 (RGLSRR) | 135 |
| 6mer-2-212 (KWQLRR) | 148 |
| 6mer-2-213 (KSILRR) | 142 |
| 6mer-2-214 (RWRSRK) | 139 |
| 6mer-2-215 (RLYYRR) | 123 |
| 6mer-2-216 (KGILKK) | 126 |
| 6mer-2-217 (KLFQKK) | 135 |
| 6mer-2-218 (KGVSKK) | 147 |
| 6mer-2-219 (RGVSKR) | 153 |
| 6mer-2-220 (KVYSKR) | 135 |
| 6mer-2-221 (KQVRKK) | 153 |
| 6mer-2-222 (RVVYRK) | 127 |
| 6mer-2-223 (KQLTRR) | 142 |
| 6mer-2-224 (RLFLKR) | 148 |
| 6mer-2-225 (KRLLRR) | 145 |
| 6mer-2-226 (RLLCKR) | 154 |
| 6mer-2-227 (KLQRRK) | 147 |

| Substance | Binding affinity [Ru] |
| --- | --- |
| 6mer-2-228 (KGQCKK) | 141 |
| 6mer-2-229 (RWQSKK) | 127 |
| 6mer-2-230 (RWIQRR) | 135 |
| 6mer-2-231 (KGISKK) | 144 |
| 6mer-2-232 (KQFTRK) | 135 |
| 6mer-2-234 (RSQTKR) | 142 |
| 6mer-2-235 (KLVRKK) | 136 |
| 6mer-2-236 (KWQQKK) | 131 |
| 6mer-2-237 (RLVYKR) | 123 |
| 6mer-2-238 (RRRRRK) | 142 |
| 6mer-2-239 (RGQYKK) | 125 |
| 6mer-2-240 (RRRCRK) | 142 |
| 6mer-2-241 (KQLTKR) | 135 |
| 6mer-2-242 (KSQRRR) | 135 |
| 6mer-2-243 (KRVLKR) | 148 |
| 6mer-2-244 (RRFSKR) | 139 |
| 6mer-2-245 (RSLSKR) | 135 |
| 6mer-2-246 (KWISKK) | 123 |
| 6mer-2-247 (KGYQKK) | 146 |
| 6mer-2-248 (RSYTRR) | 154 |
| 6mer-2-249 (RGLRKR) | 136 |
| 6mer-2-250 (KRRRKK) | 145 |
| 6mer-2-251 (KSQTKR) | 142 |
| 6mer-2-252 (KVFRKK) | 148 |
